Results on three molecules are retold here after publication PMC10457321, “Architecture of the Heme-translocating CcmABCD/E complex required for Cytochrome c maturation” (Nature Communications, 2023).

The target of data set [1] is T1, Ccm(ABCD)2 heterooctameric heme translocation complex (Escherichia coli, UniProt P33931 1-207; P0ABL8 1-220; P0ABM1 1-245; P0ABM5 1-69).
T1 construct: CcmA of Escherichia coli, as m1; CcmB of Escherichia coli, as m2; CcmC of Escherichia coli, as m3; CcmD of Escherichia coli, as m4; Nucleotide-free, inward-open state; C2-symmetric heterooctamer; Used as the target of CcmE; also called CcmABCD complex; source: GDN; copies: 2 + 2 + 2 + 2
T1 sequence 1: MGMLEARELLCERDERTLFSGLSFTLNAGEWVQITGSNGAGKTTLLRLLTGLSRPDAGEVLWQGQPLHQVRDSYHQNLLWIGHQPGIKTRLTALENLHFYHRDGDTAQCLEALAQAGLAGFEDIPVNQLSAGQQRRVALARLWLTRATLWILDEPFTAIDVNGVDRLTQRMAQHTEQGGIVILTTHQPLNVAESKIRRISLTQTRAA
T1 sequence 2: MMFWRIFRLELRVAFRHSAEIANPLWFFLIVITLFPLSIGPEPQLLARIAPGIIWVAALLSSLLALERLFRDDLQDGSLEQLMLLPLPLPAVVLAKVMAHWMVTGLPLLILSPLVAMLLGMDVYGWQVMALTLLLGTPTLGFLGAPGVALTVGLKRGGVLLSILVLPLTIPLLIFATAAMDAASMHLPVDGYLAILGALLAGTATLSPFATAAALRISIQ
T1 sequence 3: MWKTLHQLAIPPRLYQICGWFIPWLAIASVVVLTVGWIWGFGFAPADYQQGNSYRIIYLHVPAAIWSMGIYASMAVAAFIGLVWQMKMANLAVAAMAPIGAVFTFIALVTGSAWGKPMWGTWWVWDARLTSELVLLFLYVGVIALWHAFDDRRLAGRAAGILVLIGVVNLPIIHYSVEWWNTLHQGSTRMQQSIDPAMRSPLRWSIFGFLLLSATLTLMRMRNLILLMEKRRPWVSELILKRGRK
T1 sequence 4: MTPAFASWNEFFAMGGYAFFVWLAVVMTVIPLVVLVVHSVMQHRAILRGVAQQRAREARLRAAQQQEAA
The data set can be described thus: cryo-EM structure; single-particle analysis of the co-expressed, co-purified wild-type CcmABCDE sample in GDN, nucleotide-free, inward-open state; classes Ccm(ABCD)2 at 3.47 A and Ccm(ABCD)2E at 3.81 A; 20 mM Tris/HCl pH 7.5, 150 mM NaCl. To be noted: both partners purified.

Data set [2] concerns the molecule itself. Kind of data set: cryo-EM structure; single-particle analysis of the co-expressed, co-purified E154Q^A variant complex in GDN with 2.5 mM ATP added, closed state; Ccm(E154QAB)2CD with ATP at 3.62 A.
Data set [3] deals with the molecule itself. The data set can be described thus: cryo-EM structure; single-particle analysis of the co-expressed, co-purified E154Q^A variant complex in DDM, no ATP added, closed state; Ccm(E154QAB)2CD at 3.94 A.

B1: CcmE, heme chaperone (natural protein, Escherichia coli)
chain: MNIRRKNRLWIACAVLAGLALTIGLVLYALRSNIDLFYTPGEILYGKRETQQMPEVGQRLRVGGMVMPGSVQRDPNSLKVTFTIYDAEGSVDVSYEGILPDLFREGQGVVVQGELEKGNHILAKEVLAKHDENYTPPEVEKAMEANHRRPASVYKDPAS
notes: CcmE of Escherichia coli, monotopic membrane protein with an N-terminal transmembrane helix (modelled N2 to S32) and a periplasmic beta-barrel domain from F37; the ccmE gene stood in the construct used to produce CcmABCD; also called chaperone CcmE; source: GDN
Consider B1, for which, in data set [1], the “stoichiometry N” value turned out to be 1.

B2: CcmA E154Q variant with N-terminal StrepTag(II) (natural protein, Escherichia coli)
chain: MGMLEARELLCERDERTLFSGLSFTLNAGEWVQITGSNGAGKTTLLRLLTGLSRPDAGEVLWQGQPLHQVRDSYHQNLLWIGHQPGIKTRLTALENLHFYHRDGDTAQCLEALAQAGLAGFEDIPVNQLSAGQQRRVALARLWLTRATLWILDQPFTAIDVNGVDRLTQRMAQHTEQGGIVILTTHQPLNVAESKIRRISLTQTRAA
notes: CcmA of Escherichia coli with the catalytic glutamate of the switch II region (Walker B motif) replaced; Same construct as m1 apart from E154Q; also called E154Q^A variant; ^E154QA; source: DDM or GDN
For the molecule B2, the “stoichiometry N” value in data set [2] was found to be 2.

B3: CcmB, transmembrane subunit of the core ABC transporter CcmAB (natural protein, Escherichia coli)
chain: MMFWRIFRLELRVAFRHSAEIANPLWFFLIVITLFPLSIGPEPQLLARIAPGIIWVAALLSSLLALERLFRDDLQDGSLEQLMLLPLPLPAVVLAKVMAHWMVTGLPLLILSPLVAMLLGMDVYGWQVMALTLLLGTPTLGFLGAPGVALTVGLKRGGVLLSILVLPLTIPLLIFATAAMDAASMHLPVDGYLAILGALLAGTATLSPFATAAALRISIQ
notes: CcmB of Escherichia coli, integral membrane protein with six transmembrane helices, expressed from the ccm operon amplified from pEC86; Expressed from the cloned ccm operon; no truncation is described; source: DDM or GDN
Turning to B3, the “stoichiometry N” value in data set [3] was found to be 2.

What is called stoichiometry N is the number of molecules, sites or subunits per partner or assembly.
